In patent publication US20240209100A1 (DIAGONAL THERAPEUTICS, published 2024):
Blank lines part the entries; values can stand above or below the binder they belong to.

Experiments:
[1] = target: T1, IL-18 receptor (IL-18Rα/IL-18Rβ) overexpressed on HEK-Blue IL-18 cells (Homo sapiens (Human), UniProt Q13478 19-541; O95256 20-599); assay: cell-based or functional assay
T1 sequence 1: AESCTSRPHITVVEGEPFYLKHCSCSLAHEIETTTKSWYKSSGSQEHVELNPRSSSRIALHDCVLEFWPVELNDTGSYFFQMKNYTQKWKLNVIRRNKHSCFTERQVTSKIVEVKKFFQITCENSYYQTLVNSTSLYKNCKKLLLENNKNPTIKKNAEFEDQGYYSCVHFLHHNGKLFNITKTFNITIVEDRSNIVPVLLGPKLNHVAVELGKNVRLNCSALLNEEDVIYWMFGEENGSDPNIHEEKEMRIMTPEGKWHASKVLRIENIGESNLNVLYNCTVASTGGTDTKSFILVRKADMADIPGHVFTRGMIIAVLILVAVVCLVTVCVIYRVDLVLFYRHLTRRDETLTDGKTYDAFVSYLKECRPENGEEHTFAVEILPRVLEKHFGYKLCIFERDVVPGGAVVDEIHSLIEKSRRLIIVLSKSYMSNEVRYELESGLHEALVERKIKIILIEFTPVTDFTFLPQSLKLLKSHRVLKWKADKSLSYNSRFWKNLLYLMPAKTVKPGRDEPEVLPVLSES
T1 sequence 2: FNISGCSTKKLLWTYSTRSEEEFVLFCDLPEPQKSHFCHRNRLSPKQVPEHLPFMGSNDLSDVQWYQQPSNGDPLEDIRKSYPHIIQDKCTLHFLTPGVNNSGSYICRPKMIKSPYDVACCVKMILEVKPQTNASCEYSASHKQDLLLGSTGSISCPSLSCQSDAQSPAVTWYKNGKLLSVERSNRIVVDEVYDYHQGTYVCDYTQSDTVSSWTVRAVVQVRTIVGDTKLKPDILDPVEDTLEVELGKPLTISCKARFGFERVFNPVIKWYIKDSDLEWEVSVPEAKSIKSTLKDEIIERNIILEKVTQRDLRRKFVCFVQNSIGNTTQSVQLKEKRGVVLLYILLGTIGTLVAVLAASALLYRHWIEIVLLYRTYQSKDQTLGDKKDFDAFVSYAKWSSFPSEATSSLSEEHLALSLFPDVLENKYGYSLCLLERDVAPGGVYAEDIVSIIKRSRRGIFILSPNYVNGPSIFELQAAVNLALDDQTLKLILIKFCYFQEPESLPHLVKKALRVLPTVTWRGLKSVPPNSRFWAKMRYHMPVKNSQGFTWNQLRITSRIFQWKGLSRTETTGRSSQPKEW

[2] = target: T1, IL-18 receptor (IL-18Rα/IL-18Rβ) …; assay: cell-based or functional assay; remark: listed apart in the source

B1: DGL052 (bispecific antibody, V domains shown)
V domain 1: QVQLQESGGGLVQPGGSLRLSCAASGFIFSNWYMRWVRQAPGEGLEWVSSINSGGDDTDYADSVKGRFTISRDNAKGTLYLQMHSLKPEDTALYYCERGADRVRGQGTQVTVSS
V domain 2: QVQLVESGGDLVLPGGSLKLSCEASGSISSRNSMAWYRRAPGKQRELVAAISSISSGGRTDYADFVKGRFTIFRDTAKNMVYLQMNNLKPEDTAVYDCDDPIRVASLAYDDWGQGTQVTVSS
HEK-Blue IL-18: Abs405 (Emax) [1]: 1.03 Abs | HEK-Blue IL-18: EC50 [1]: 4.1 pM

B7: DGL060 (bispecific antibody, V domains shown)
V domain 1: EVQLVESGGGLVQPGGSLRLSCAASGSIFSINAMGWYRQAPGKQREVVATSTGGGMTNYADSVKGRFTISRDNAKNTVYLQMNSLKPEDTAVYYCNADKDPFFPGDYWGQGTQVTVSS
V domain 2: QVQLQESGGGLVQPGGSLGLSCAASGIKISVNSMAWYRQAPGERREMVAVISSGGSAVYADSVKGRFTISRDNAKNMVYLQMNSLKPEDTAVYYCHPGSAAYRDYWGQGTQVTVSS
HEK-Blue IL-18: Abs405 (Emax) [1]: 0.6 Abs | HEK-Blue IL-18: EC50 [1]: 28 pM

B8: DGL075 (bispecific antibody, V domains shown)
V domain 1: B7 V domain 1
V domain 2: EVQLVESGGGVAQAGGSLRLSCAASITSFSLNTMGYYRQLPGKQRELVAVESSSGITNYADSVKGRFTISRDGAKNTVFLQMNSLTPEDTAVYYCGGKLFGRDFWGQGTQVTVSS
HEK-Blue IL-18: Abs405 (Emax) [1]: 0.81 Abs | HEK-Blue IL-18: EC50 [1]: 28 pM

B9: DGL061 (bispecific antibody, V domains shown)
V domain 1: QVQLQESGGGLVQPGGSLRLSCAASGNIFRATGMGWYRQAPGKWRELVARISSTGSPNYVDFVKGRFTISRDNAKNTLYLQMNSLKPDDTAVYYCNTVGTTLFAWGQGTQVTVSS
V domain 2: B7 V domain 2
HEK-Blue IL-18: Abs405 (Emax) [1]: 0.47 Abs | HEK-Blue IL-18: EC50 [1]: 6.3 pM

B10: DGL062 (bispecific antibody, V domains shown)
V domain 1: QVQLQESGGGLVQPGGSLRLSCAASGSIFSTKGLGWYRQAPGEQRELVAGISSAGWIFYTQSVKGRFTMSRDNAKNTVYLQMNSLKPEDTAVYYCNSAQSGVPLRSWGQGTQVTVAS
V domain 2: B7 V domain 2
HEK-Blue IL-18: Abs405 (Emax) [1]: 0.88 Abs | HEK-Blue IL-18: EC50 [1]: 3.4 pM

B11: DGL068 (bispecific antibody, V domains shown)
V domain 1: B7 V domain 1
V domain 2: QVQLVESGGGLVQAGGSLRLSCVASGTFFQIHVMGWYRQAPGKQRELVAFIINNGGTRYADSVKGRFTISRDYAKNTVYLQMNSLKPEDTAVYYCNTEGTYRGRYSTDNWGQGTQVTVSS
HEK-Blue IL-18: Abs405 (Emax) [1]: 0.36 Abs | HEK-Blue IL-18: EC50 [1]: 18 pM

B13: DGL063 (bispecific antibody, V domains shown)
V domain 1: QLQLVESGGGLVQPGGSLRLSCAASGKIFSINIMDWYRQAPGKERELVARISPGDIITYANDVKGRFTISRNNAKNTVYLQMNSLKPEDTAVYYCRWRQGAGDYWGRGTQVTVSS
V domain 2: B7 V domain 2
HEK-Blue IL-18: Abs405 (Emax) [1]: 0.6 Abs | HEK-Blue IL-18: EC50 [1]: 14 pM

B18: DGL077 (bispecific antibody, V domains shown)
V domain 1: B10 V domain 1
V domain 2: B8 V domain 2
HEK-Blue IL-18: Abs405 (Emax) [1]: 0.6 Abs | HEK-Blue IL-18: EC50 [1]: 5.4 pM

B19: DGL076 (bispecific antibody, V domains shown)
V domain 1: B9 V domain 1
V domain 2: B8 V domain 2
HEK-Blue IL-18: Abs405 (Emax) [1]: 0.49 Abs | HEK-Blue IL-18: EC50 [1]: 6.6 pM

B20: DGL078 (bispecific antibody, V domains shown)
V domain 1: QVQLQESGGGLVQAGGSLRLSCIVSGSIVRIDFMGWYRQAPGKKRDMVATITTGGSTNYADSVKDRFTISRDNAKNTLSLQVNDLKPEDTAVYYCNSVVHTTSRPPVLYWGQGTQVTVSS
V domain 2: B8 V domain 2
HEK-Blue IL-18: Abs405 (Emax) [1]: 0.65 Abs | HEK-Blue IL-18: EC50 [1]: 24 pM

Second part, the binder after the results:

HEK-Blue IL-18: Abs 405 [2]: 0.99 Abs | HEK-Blue IL-18: Fold over Background [2]: 4.3 fold
B2: DGL317 (bispecific antibody, V domains shown)
V domain 1: B1 V domain 1
V domain 2: QVQLVESGGGLVQAGGSLRLSCAASGMFFSIGEMGWYRQAPGKQREMVARITRDGRINYADSVEGRFTASRNVAKTTLFLQMNSLKPEDTANYQCTVRRWDEEYWGKGTLVTVSD

HEK-Blue IL-18: Abs 405 [2]: 0.42 Abs | HEK-Blue IL-18: Fold over Background [2]: 1.8 fold
B3: DGL323 (bispecific antibody, V domains shown)
V domain 1: B1 V domain 1
V domain 2: QLQLVESGGGLVQAGGSLRLSCAASRSITFSHNVMGWYRQAPGKQRELVASIGSGGSTNYVDSVKGRATISRDNAKKTVYLQMNSLKPEDTAVYYCGVVVGVYRGSLGQGTQVTVSS

HEK-Blue IL-18: Abs 405 [2]: 2.23 Abs | HEK-Blue IL-18: Fold over Background [2]: 9.7 fold
B4: DGL318 (bispecific antibody, V domains shown)
V domain 1: QVQLVESGGGLVQAGGSLRLSCAASGRTFSSYDMGWFRQAPGKEREFVAALRWSGGSTSYADSVKGRFTISRDNAKNTVYLHMNSLKPEDTAVYYCAATLETDSGTYWADYWGQGTQVTVSS
V domain 2: B3 V domain 2

HEK-Blue IL-18: Abs 405 [2]: 0.74 Abs | HEK-Blue IL-18: Fold over Background [2]: 3.2 fold
B5: DGL322 (bispecific antibody, V domains shown)
V domain 1: QVQLVESGGGLVQAGGSLRLSCAASGRTFSSYTMGWFRQAPGKEREFVAAISWSAGRTYYADSVKGRFTISRDNAKNTVYLQMNSLKPEDTAVYFCAAEEAPDWAPIDCSGYGCLSLYDYWGQGTQVTVSS
V domain 2: B3 V domain 2

HEK-Blue IL-18: Abs 405 [2]: 0.38 Abs | HEK-Blue IL-18: Fold over Background [2]: 1.7 fold
B6: DGL321 (bispecific antibody, V domains shown)
V domain 1: QVQLQESGGGLVQPGGSARLSCVASGIIFNDYHMGWYRQAPGKQRDLVAGITAGGSTTYADSVKGRFTISRDNAKHTVYLQMNNLSPEDTAVYYCNTFYNAILDWGKGTLVTVSS
V domain 2: B3 V domain 2

HEK-Blue IL-18: Abs 405 [2]: 2.88 Abs | HEK-Blue IL-18: Fold over Background [2]: 12.5 fold
B12: DGL319 (bispecific antibody, V domains shown)
V domain 1: B7 V domain 1
V domain 2: B3 V domain 2

HEK-Blue IL-18: Abs 405 [2]: 0.83 Abs | HEK-Blue IL-18: Fold over Background [2]: 3.6 fold
B14: DGL314 (bispecific antibody, V domains shown)
V domain 1: B10 V domain 1
V domain 2: B2 V domain 2

HEK-Blue IL-18: Abs 405 [2]: 0.58 Abs | HEK-Blue IL-18: Fold over Background [2]: 2.5 fold
B15: DGL315 (bispecific antibody, V domains shown)
V domain 1: B6 V domain 1
V domain 2: B2 V domain 2

HEK-Blue IL-18: Abs 405 [2]: 0.58 Abs | HEK-Blue IL-18: Fold over Background [2]: 2.5 fold
B16: DGL316 (bispecific antibody, V domains shown)
V domain 1: QVQLVESGGGLVQAGGSLRLSCAASGRTFSKHAMGWFRQAPGKEREFVAAIDWSGGSTYYADSVKGRFTISRDNAKNTVYLQMDSLKPEDTAVYYCAADSYTDYAQLWLPELESEYDYWGQGTQVTVSS
V domain 2: B2 V domain 2

HEK-Blue IL-18: Abs 405 [2]: 2.36 Abs | HEK-Blue IL-18: Fold over Background [2]: 10.3 fold
B17: DGL320 (bispecific antibody, V domains shown)
V domain 1: B10 V domain 1
V domain 2: B3 V domain 2
